Measured values as given in patent US20130158238A1 (THERACLONE SCIENCES, published 2013).

B1: 8i10 (antibody, V domains shown)
VH: QVQLQESGPGLVKPSETLSLTCTVSGSSISNYYWSWIRQSPGKGLEWIGFIYYGGNTKYNPSLKSRVTISQDTSKSQVSLTMSSVTAAESAVYFCARASCSGGYCILDYWGQGTLVTVS
VL: DIQMTQSPSSLSASVGDRVTITCRASQNIYKYLNWYQQRPGKAPKGLISAASGLQSGVPSRFSGSGSGTDFTLTITSLQPEDFATYYCQQSYSPPLTFGGGTRVEIK
B2: 23K12 (antibody, V domains shown)
VH: EVQLVESGGGLVQPGGSLRISCAASGFTVSSNYMSWVRQAPGKGLEWVSVIYSGGSTYYADSVKGRFSFSRDNSKNTVFLQMNSLRAEDTAVYYCARCLSRMRGYGLDVWGQGTTVTVS
VL: DIQMTQSPSSLSASVGDRVTITCRTSQSISSYLNWYQQKPGKAPKLLIYAASSLQSGVPSRFSGSGSGTDFTLTISGLQPEDFATYYCQQSYSMPAFGQGTKLEIK

Legend:
Experiment in all cases: ELISA, peptide 2 µg/mL, mAb 5 µg/mL
[1] = molecular target: NM9
[2] = molecular target: NM16
[3] = molecular target: NM11
[4] = molecular target: NM10

Binder | binding activity (ELISA A450) [1] | binding activity (ELISA A450) [2] | binding activity (ELISA A450) [3] | binding activity (ELISA A450) [4]
B1 | 0.12 | 0.29 | 0.13 | 0.1
B2 | 0.3 | 0.62 | 0.3 | 0.24
